From publication PMC10235082

What was measured:
[1] = target: human FcγRIIIA F176V (human) (UniProt P08637); test: SPR; Biacore T200; FcγRs immobilised on CM5 sensor chip, IVIG or rhIgG1 Fc injected; three-fold serial dilution (FcγRIA from 300 nM; FcγRIIA from 20 μM; FcγRIIIA from 3 μM IVIG and 300 nM hIgG1 Fc); regeneration 10 mM glycine; single cycle kinetics model
[2] = target: human FcγRIA (human) (UniProt P12314); test: as above
[3] = target: human FcRn (human) (UniProt P55899); test: SPR; Biacore T200; FcRn immobilised on CM5 sensor chip, IVIG (from 500 nM) or rhIgG1 Fc (from 250 nM) injected, two-fold serial dilution; regeneration 100 mM Tris-HCl; multicycle kinetics model (methods), steady state equilibrium model (legend of Fig. 4)

Chain of UniProt P08637 (P08637 17-208 F176V): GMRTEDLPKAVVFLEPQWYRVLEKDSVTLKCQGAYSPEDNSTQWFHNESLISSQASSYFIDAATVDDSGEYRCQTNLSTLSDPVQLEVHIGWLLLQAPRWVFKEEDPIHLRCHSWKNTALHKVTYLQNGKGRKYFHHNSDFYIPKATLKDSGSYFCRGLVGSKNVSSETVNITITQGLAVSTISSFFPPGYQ
Chain of UniProt P12314 (P12314 16-292): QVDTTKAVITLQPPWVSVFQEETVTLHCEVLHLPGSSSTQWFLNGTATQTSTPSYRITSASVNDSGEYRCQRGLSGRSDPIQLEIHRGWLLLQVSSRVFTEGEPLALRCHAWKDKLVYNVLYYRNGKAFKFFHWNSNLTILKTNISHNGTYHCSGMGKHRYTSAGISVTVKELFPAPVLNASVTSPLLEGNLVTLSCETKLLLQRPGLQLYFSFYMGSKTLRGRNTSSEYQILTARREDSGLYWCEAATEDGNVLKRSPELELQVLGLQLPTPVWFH

Kd [1]: 9.98 nM | Kd [2]: 1.28 nM | Kd [3]: 9.09 nM
Substance: recombinant human IgG1 Fc derived from ALB::hIgG1 Fc genome-edited chickens (domain or fragment)
